Experimental data published in patent publication US20090023672, “AGE-2 APTAMER” (KURUME UNIVERSITY, published 2009).

B1: AGE-2 aptamer 7 (ssDNA)
DNA: CCACACTGCACTAAACCAGCGTCCCGGACCATCACAACCTCTGCCCACTAGCCCCT
B2: AGE-2 aptamer 5 (ssDNA)
DNA: CAAGCGCTCCATCCACCGACATACCTACCAAACACTCTCCTTGCCCATAAAACCAC
B3: AGE-2 aptamer 9 (ssDNA)
DNA: TAACTCACTCCATACTCACTTGCTGATTCGCCAACAACACACCCTTAAACAGTCCC
B4: AGE-2 aptamer 2 (ssDNA)
DNA: ACCACTGCACGACCCCCACCAGTCCCACTCGCAGCGTCCATGGCCCCCACGCCCCA
B5: AGE-2 aptamer 8 (ssDNA)
DNA: AACTAGCCCGAGCCACAATCCCATAACAAGCGTGACCACACTATCCTGTCTTCCC
B6: AGE-2 aptamer 4 (ssDNA)
DNA: CCAGCCTCGATACCATACCCACCAACCCAACCAGACTCCACACACCCACGCGTCTC
B7: AGE-2 aptamer 10 (ssDNA)
DNA: ATAACCCCGACGTACACGCCAACTATGCCCACAACCCGCCATAACCCACCACCTTC
B8: AGE-2 aptamer 13 (ssDNA)
DNA: CCTCAACACACCTCTAACCAACCCTCAGCCCAGCACAACACCCCCCAAACCGACAC
B9: AGE-2 aptamer 6 (ssDNA)
DNA: CCCGCCATTCCCCTACATAACACCTACCCATCTCCCTTCCCAGTTAATCACCGC
B10: AGE-2 aptamer 11 (ssDNA)
DNA: CCCAAGCACAATAGCCACACCCACGACCCACCCTCATATTCCGACCACGCTCCC
B11: AGE-2 aptamer 14 (ssDNA)
DNA: CTGAATACCAACGTACCCCCTCCCAAGTCCCCCTACCCACGCTAAACTCAACCTCA
B12: AGE-2 aptamer 15 (ssDNA)
DNA: TACAGCCCCCCAACCCACCACCGCCGTAGATAACCACCCACCAACGATATCCCACT
B13: AGE-2 aptamer 3 (ssDNA)
DNA: CGCCCCCACACCACCGCCACGACCCCACAATCCCCCGAGGTCCCCCGCGTCCACAC

target: AGE-2 (glyceraldehyde-derived advanced glycation end product of human serum albumin) (Homo sapiens, UniProt P02768 P02768:25-609, HSA glycated with D-glyceraldehyde at 37 C for 7 days, dialysed against PBS); assay: AGE-2 fluorescence attenuation, 100 ug/mL AGE-2, 25 nM aptamer; settings: tags: HSA from Sigma; immobilised on SulfoLink beads for SELEX
Experimental: First, for measuring fluorescence properties of AGE-2, wavelengths of AGE-2 were determined for excitation and […] using a spectrofluorometer (FP-777: JASCO Corporation). […] Subsequently, the fluorescence intensity was measured with 25 to 100 μg/mL of AGE-2 at the excitation wavelength of 380 nm, and a calibration curve was prepared (FIG. 3A).
Then, to each aptamer (SEQ ID NOs: 1 to 15), 100 μg/mL of the AGE-2 was added at a final concentration of 25 to 100 nM, and the fluorescence intensity was measured (see FIGS. 3B and C). Based on attenuation in the fluorescence intensity of AGE-2 when the aptamer was added at 25 nM, the weight (ng) of the bound AGE-2 was calculated per mole (nmol) of the aptamer.

Sequence of AGE-2 (glyceraldehyde-derived advanced glycation end product of human serum albumin) (P02768 25-609, stated change not applied, one chain of several): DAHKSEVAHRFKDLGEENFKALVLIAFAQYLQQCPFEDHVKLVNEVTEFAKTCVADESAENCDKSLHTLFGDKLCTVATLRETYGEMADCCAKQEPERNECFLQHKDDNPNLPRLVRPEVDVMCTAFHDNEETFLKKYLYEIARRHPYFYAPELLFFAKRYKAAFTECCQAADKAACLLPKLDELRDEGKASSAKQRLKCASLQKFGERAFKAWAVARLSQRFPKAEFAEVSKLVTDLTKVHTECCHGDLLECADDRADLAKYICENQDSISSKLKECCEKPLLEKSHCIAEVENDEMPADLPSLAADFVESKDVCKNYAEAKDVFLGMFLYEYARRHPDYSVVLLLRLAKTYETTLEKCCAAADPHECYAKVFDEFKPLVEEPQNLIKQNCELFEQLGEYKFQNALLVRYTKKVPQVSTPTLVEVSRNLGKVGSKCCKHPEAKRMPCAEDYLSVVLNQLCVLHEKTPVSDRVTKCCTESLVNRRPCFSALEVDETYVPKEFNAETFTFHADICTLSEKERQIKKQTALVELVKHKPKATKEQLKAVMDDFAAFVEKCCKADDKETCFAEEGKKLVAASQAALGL

Q: With B1 as the binder, how does the binding signal read?
A: 146 ng AGE-2 bound per nmol aptamer

Q: B2 was tested. Which binding signal did it give?
A: 143 ng AGE-2 bound per nmol aptamer

Q: For B3, which binding signal is on record?
A: 117 ng AGE-2 bound per nmol aptamer

Q: Which binding signal does the source give for B4 here?
A: 175 ng AGE-2 bound per nmol aptamer

Q: How did the binding signal turn out when B5 was run?
A: 175 ng AGE-2 bound per nmol aptamer

Q: With B6 as the binder, how does the binding signal read?
A: 210 ng AGE-2 bound per nmol aptamer

Q: B7 was tested. Which binding signal did it give?
A: 134 ng AGE-2 bound per nmol aptamer

Q: B8 was tested. Which binding signal did it give?
A: 175 ng AGE-2 bound per nmol aptamer

Q: Which binding signal does the source give for B9 here?
A: 202 ng AGE-2 bound per nmol aptamer

Q: For B10, which binding signal is on record?
A: 137 ng AGE-2 bound per nmol aptamer

Q: How did the binding signal turn out when B11 was run?
A: 158 ng AGE-2 bound per nmol aptamer

Q: For B12, which binding signal is on record?
A: 271 ng AGE-2 bound per nmol aptamer

Q: For B13, which binding signal is on record?
A: 260 ng AGE-2 bound per nmol aptamer
